How the values were obtained:
mass photometry = biological target: the molecule itself; assay: mass photometry
SEC = biological target: the molecule itself; assay: SEC

B1: Teneurin‐m superfold (Ten‐m^SF), residues 779–2731 (domain or fragment)
chain: LNCGDSKDNDKDGLVDCEDPECCASHVCKTSQLCVSAPKPIDVLLRKQPPAITASFFERMKFLIDESSLQNYAKLETFNESRSAVIRGRVVTSLGMGLVGVRVSTTTLLEGFTLTRDDGWFDLMVNGGGAVTLQFGRAPFRPQSRIVQVPWNEVVIIDLVVMSMSEEKGLAVTTTHTCFAHDYDLMKPVVLASWKHGFQGACPDRSAILAESQVIQESLQIPGTGLNLVYHSSRAAGYLSTIKLQLTPDVIPTSLHLIHLRITIEGILFERIFEADPGIKFTYAWNRLNIYRQRVYGVTTAVVKVGYQYTDCTDIVWDIQTTKLSGHDMSISEVGGWNLDIHHRYNFHEGILQKGDGSNIYLRNKPRIILTTMGDGHQRPLECPDCDGQATKQRLLAPVALAAAPDGSLFVGDFNYIRRIMTDGSIRTVVKLNATRVSYRYHMALSPLDGTLYVSDPESHQIIRVRDTNDYSQPELNWEAVVGSGERCLPGDEAHCGDGALAKDAKLAYPKGIAISSDNILYFADGTNIRMVDRDGIVSTLIGNHMHKSHWKPIPCEGTLKLEEMHLRWPTELAVSPMDNTLHIIDDHMILRMTPDGRVRVISGRPLHCATASTAYDTDLATHATLVMPQSIAFGPLGELYVAESDSQRINRVRVIGTDGRIAPFAGAESKCNCLERGCDCFEAEHYLATSAKFNTIAALAVTPDSHVHIADQANYRIRSVMSSIPEASPSREYEIYAPDMQEIYIFNRFGQHVSTRNILTGETTYVFTYNVNTSNGKLSTVTDAAGNKVFLLRDYTSQVNSIENTKGQKCRLRMTRMKMLHELSTPDNYNVTYEYHGPTGLLRTKLDSTGRSYVYNYDEFGRLTSAVTPTGRVIELSFDLSVKGAQVKVSENAQKEMSLLIQGATVIVRNGAAESRTTVDMDGSTTSITPWGHNLQMEVAPYTILAEQSPLLGESYPVPAKQRTEIAGDLANRFEWRYFVRRQQPLQAGKQSKGPPRPVTEVGRKLRVNGDNVLTLEYDRETQSVVVMVDDKQELLNVTYDRTSRPISFRPQSGDYADVDLEYDRFGRLVSWKWGVLQEAYSFDRNGRLNEIKYGDGSTMVYAFKDMFGSLPLKVTTPRRSDYLLQYDDAGALQSLTTPRGHIHAFSLQTSLGFFKYQYYSPINRHPFEILYNDEGQILAKIHPHQSGKVAFVHDTAGRLETILAGLSSTHYTYQDTTSLVKSVEVQEPGFELRREFKYHAGILKDEKLRFGSKNSLASARYKYAYDGNARLSGIEMAIDDKELPTTRYKYSQNLGQLEVVQDLKITRNAFNRTVIQDSAKQFFAIVDYDQHGRVKSVLMNVKNIDVFRLELDYDLRNRIKSQKTTFGRSTAFDKINYNADGHVVEVLGTNNWKYLFDENGNTVGVVDQGEKFNLGYDIGDRVIKVGDVEFNNYDARGFVVKRGEQKYRYNNRGQLIHSFERERFQSWYYYDDRSRLVAWHDNKGNTTQYYYANPRTPHLVTHVHFPKISRTMKLFYDDRDMLIALEHEDQRYYVATDQNGSPLAFFDQNGSIVKEMKRTPFGRIIKDTKPEFFVPIDFHGGLIDPHTKLVYTEQRQYDPHVGQWMTPLWETLATEMSHPTDVFIYRYHNNDPINPNKPQNYMIDLDSWLQLFGYDLNNMQSSRYTKLAQYTPQASIKSNTLAPDFGVISGLECIVEKTSEKFSDFDFVPKPLLKMEPKMRNLLPRVSYRRGVFGEGVLLSRIGGRALVSVVDGSNSVVQDVVSSVFNNSYFLDLHFSIHDQDVFYFVKDNVLKLRDDNEELRRLGGMFNISTHEISDHGGSAAKELRLHGPDAVVIIKYGVDPEQERHRILKHAHKRAVERAWELEKQLVAAGFQGRGDWTEEEKEELVQHGDVDGWNGIDIHSIHKYPQLADDPGNVAFQRDAKRKRRKTGSSHRSASNRRQLKFGELSA
Question: B1 was tested. Which “stoichiometry N” value (mass photometry) did it give?
Answer: ~4

Question: And the “stoichiometry N” value (SEC)?
Answer: 2
